From patent publication US20230106511A1, “PBP3 BINDING BICYCLIC PEPTIDE LIGANDS” (priority 2020, published 2023)

T1: PBP3 of E. coli (E. coli), P0AD68
T1 chain: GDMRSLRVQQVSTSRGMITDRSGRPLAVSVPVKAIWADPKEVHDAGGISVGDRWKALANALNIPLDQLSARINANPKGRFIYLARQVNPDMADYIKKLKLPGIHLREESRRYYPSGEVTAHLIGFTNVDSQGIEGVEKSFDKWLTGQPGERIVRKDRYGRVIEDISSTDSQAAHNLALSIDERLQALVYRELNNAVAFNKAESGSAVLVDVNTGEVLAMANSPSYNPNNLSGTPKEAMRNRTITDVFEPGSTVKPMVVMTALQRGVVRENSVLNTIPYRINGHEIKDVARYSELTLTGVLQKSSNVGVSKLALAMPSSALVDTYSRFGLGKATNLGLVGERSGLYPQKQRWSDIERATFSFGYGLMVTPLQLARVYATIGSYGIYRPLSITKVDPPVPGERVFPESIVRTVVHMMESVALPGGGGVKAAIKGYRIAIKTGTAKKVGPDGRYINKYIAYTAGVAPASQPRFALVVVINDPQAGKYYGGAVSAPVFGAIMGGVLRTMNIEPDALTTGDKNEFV


Key:
[1] = biological target: unmodified PBP protein; test: Fluorescence polarisation competition binding assay (BODIPY labelled penicillin tracer); settings: competition with BODIPY labelled penicillin tracer
Experimental: Fluorescence polarisation competition was carried out using a BODIPY labelled Penicillin tracer and unlabelled peptides, for competition to an unmodified PBP protein.
Fluorescent BODIPY labelled penicillin at 5 mM in DMSO were diluted to 6.25 nM in binding buffer (10 mM HEPES, pH8, 300 mM NaCl, 2% glycerol). Unmodified PBP were diluted to 2 μM in binding buffer. A two-fold dilution series of unmodified peptide was prepared across 12 wells in binding buffer, with the highest final well concentration being 60 μM, and the lowest concentration being […]. 5 μl of the unmodified peptide dilution series or Carbenicillin were added to 12 wells of a 384-Well NBS™ Low Volume Microplate (Fisher Scientific). 10 μl diluted fluorescent BODIPY labelled penicillin (6.25 nM) were then added to the 12 wells containing the unmodified peptide dilutions. 10 μl of unmodified PBP (2 μM) were then added to the 12 wells containing unmodified peptide and fluorescent BODIPY labelled penicillin to bring the total volume to 25 μl, and the final concentration of Fluorescent BODIPY labelled penicillin to 2.5 nM and unmodified PBP to 800 nM. […]
Fluorescence polarisation was measured every 5 minutes for a period of one hour at room temperature. […]
Data were analysed in GraphPad software to derive values for the inhibition constant. […]

[2] = biological target: PBP3 (E. coli) (Escherichia coli, UniProt P0AD68); test: Fluorescence polarisation direct binding assay; settings: direct binding to PBP 3 (E. coli)
Experimental: Fluorescent peptides at 10 mM in DMSO were diluted to 2.5 nM in binding buffer (10 mM HEPES, pH8, 300 mM NaCl, 2% glycerol). A two-fold dilution series of PBP protein was then prepared across 12 wells in binding buffer, with the highest concentration being 21 μM, and the lowest concentration being 17 nM.
10 μl diluted fluorescent peptide (2.5 nM) was added into 12 wells of a 384-Well NBS™ Low Volume Microplate (Fisher Scientific). 10 μl PBP dilution series was then added to the wells containing the fluorescent peptide, and 5 μl binding buffer was added to bring the total volume to 25 μl and the final concentration of peptide tracer to 1 nM. A control well lacking PBP protein was prepared with a final peptide concentration of 1 nM to a final volume of 25 μl in binding buffer. Fluorescence polarisation was measured every 5 minutes for a period of one hour at room temperature. The gain and focal height were optimised using the control well lacking protein.
Data were analysed in GraphPad software to derive values for the dissociation constant. Experiments were repeated at least three times.
Certain peptide ligands of the invention were tested in the above mentioned binding assay and the results are shown in Table 1 for binding to the indicated PBP: […]

[3] = biological target: T1, PBP3 of E. coli (E. coli), P0AD68; test: FP competition, tracer BCY12820
[4] = biological target: T1, PBP3 of E. coli (E. coli), P0AD68; test: fluorescence polarisation competition, BODIPY-labelled penicillin as tracer

PBP3 (E. coli), sequence (P0AD68 1-577): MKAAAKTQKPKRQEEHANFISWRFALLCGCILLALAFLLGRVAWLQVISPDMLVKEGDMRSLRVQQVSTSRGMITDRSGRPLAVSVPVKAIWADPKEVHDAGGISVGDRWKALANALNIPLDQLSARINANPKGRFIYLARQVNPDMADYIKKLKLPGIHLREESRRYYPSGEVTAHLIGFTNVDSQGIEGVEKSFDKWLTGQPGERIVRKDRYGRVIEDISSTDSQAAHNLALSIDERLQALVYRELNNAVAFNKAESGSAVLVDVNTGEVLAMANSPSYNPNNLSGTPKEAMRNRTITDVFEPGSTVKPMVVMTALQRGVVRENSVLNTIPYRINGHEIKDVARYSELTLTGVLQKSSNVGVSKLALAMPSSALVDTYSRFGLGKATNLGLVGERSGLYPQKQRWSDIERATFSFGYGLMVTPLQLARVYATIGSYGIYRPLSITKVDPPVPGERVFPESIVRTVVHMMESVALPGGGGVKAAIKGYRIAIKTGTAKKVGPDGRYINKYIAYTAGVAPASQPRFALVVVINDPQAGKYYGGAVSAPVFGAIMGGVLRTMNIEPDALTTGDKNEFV

Molecule	Ki [3]	other results
A-CiLENCiiYYVPYYGYACiii-A, TATA bicyclic peptide [BCY12123, A-(SEQ ID NO: 3)-A]	–	Ki [1]: 1390 nM
Cc1cc(C)n2c1C=C1C=CC(CCC(=O)Nc3ccc(OCC(=O)N[C@@H]4C(=O)N5[C@@H]4SC(C)(C)[C@@H]5C(=O)O)cc3)=[N+]1[B-]2(F)F [Bocillin]	–	Kd [2]: 440 nM
CSFPKCPWVEGC (modifications not checked) [BCY13949]	45400 nM	–
ACLENCYYVPYYGYACA (modifications not checked) [BCY12123]	–	Ki [4]: 1390 nM
ACWFPNCPWVEGCA (modifications not checked) [BCY13764]	< 4080 nM	–
ACVYPKCPWVEGCA (modifications not checked) [BCY13768]	< 3820 nM	–
ACSFPACPWVEGCA (modifications not checked) [BCY13659]	4 nM	–
ACAFPKCPWVEGCA (modifications not checked) [BCY13656]	5 nM	–
ACSFPKCPWVEACA (modifications not checked) [BCY13664]	30 nM	–
ACSFPKCPWVEKCA (modifications not checked) [BCY13419]	40 nM	–
ACQFPVCPWVEGCA (modifications not checked) [BCY13226]	20 nM	–
CSFPKCPWVEGC (modifications not checked) [BCY12742]	3 nM	–
